Data taken from patent US20050080014A1 (Amgen, published 2005).
Groups on a side chain read outwards from the residue. No end group written: not given here. maleimide = maleimide group of MeO-PEG-maleimide, which reacts with the Cys side-chain thiol

T1: human mpl receptor (human, UniProt P40238 26-635)
T1 sequence (looked up): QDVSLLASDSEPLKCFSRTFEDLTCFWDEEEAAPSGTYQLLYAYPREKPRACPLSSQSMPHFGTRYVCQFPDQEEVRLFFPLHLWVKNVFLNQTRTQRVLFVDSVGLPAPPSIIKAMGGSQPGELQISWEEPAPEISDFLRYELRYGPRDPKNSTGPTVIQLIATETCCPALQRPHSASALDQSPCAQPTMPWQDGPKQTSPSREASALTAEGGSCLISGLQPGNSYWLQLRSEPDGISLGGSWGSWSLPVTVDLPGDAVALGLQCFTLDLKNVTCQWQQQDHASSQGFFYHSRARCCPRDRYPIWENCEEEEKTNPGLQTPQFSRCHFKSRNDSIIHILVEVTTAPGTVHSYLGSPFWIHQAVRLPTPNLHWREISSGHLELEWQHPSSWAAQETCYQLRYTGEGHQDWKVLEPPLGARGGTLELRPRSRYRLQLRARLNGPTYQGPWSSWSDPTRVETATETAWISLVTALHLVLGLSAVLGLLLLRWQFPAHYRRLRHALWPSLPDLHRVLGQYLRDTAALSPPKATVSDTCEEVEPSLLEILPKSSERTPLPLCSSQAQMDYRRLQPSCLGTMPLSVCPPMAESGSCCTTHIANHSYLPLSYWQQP

B1: peptide 22 (dimer of a dimer, oxidised peptide 18) (peptide)
peptide: IEGPTLRQWLAARAGGGCGGGGIEGPTLRQWLAARA
modifications: also: homodimer: intermolecular disulfide between the linker Cys18 of two chains
B2: TMP C-C dimer (SEQ ID NO: 2) (peptide)
peptide: IEGPTLRQWLAARA
modifications: also: dimer of two TMP chains joined at C-termini through a Lys branch (structure only in a drawing)

Each molecule was assayed against T1, human mpl receptor (assay: cell-based or functional assay). Conditions: not given.

Molecule	Relative Potency (EC50), proliferation of murine 32D cells transfected with human mpl receptor
IEGPTLRQWLAARAGIEGPTLRQWLAARA [TMP-(Gly)n-TMP, n = 1]	4 log units of activity (1 unit is approximately 10-fold)
IEGPTLRQWLAARAGGGGGGGIEGPTLRQWLAARA [TMP-(Gly)n-TMP, n = 7]	4 log units of activity (1 unit is approximately 10-fold)
IEGPTLRQWLAARAGGGGGGGGIEGPTLRQWLAARA [TMP-(Gly)n-TMP, n = 8]	4.5 log units of activity (1 unit is approximately 10-fold)
B1	4 log units of activity (1 unit is approximately 10-fold)
IEGPTLRQWLAARAGGGKGGGGIEGPTLRQWLAARA [TMP-GGGKGGGG-TMP (SEQ ID NO. 14)]	4 log units of activity (1 unit is approximately 10-fold)
IEGPTLRQWLAARAGGGCGGGGIEGPTLRQWLAARA [TMP-GGGCGGGG-TMP (SEQ ID NO. 16)]	4 log units of activity (1 unit is approximately 10-fold)
IEGPTLRQALAARAGGGGGGGGIEGPTLRQALAARA [IEGPTLRQALAARA-GGGGGGGG-IEGPTLRQALAARA (SEQ ID NO. 13)]	0.5 log units of activity (1 unit is approximately 10-fold)
IEGPTLRQWLAARAGGGNGSGGIEGPTLRQWLAARA [TMP-GGGNGSGG-TMP (SEQ ID NO. 19)]	4 log units of activity (1 unit is approximately 10-fold)
IEGPTLRQWLAARAGGGKGGGGIEGPTLRQWLAARA (not fully specified (residue 18)) [TMP-GGGK(PEG)GGGG-TMP (SEQ ID NO. 17)]	5 log units of activity (1 unit is approximately 10-fold)
IEGPTLRQWLAARAIEGPTLRQWLAARA [TMP-(Gly)n-TMP, n = 0]	4.5 log units of activity (1 unit is approximately 10-fold)
IEGPTLRQWLAARA [TMP monomer (SEQ ID NO: 1)]	1 log units of activity (1 unit is approximately 10-fold)
IEGPTLRQWLAARAGGGIEGPTLRQWLAARA [TMP-(Gly)n-TMP, n = 3]	4 log units of activity (1 unit is approximately 10-fold)
IEGPTLRQWLAARAGGIEGPTLRQWLAARA [TMP-(Gly)n-TMP, n = 2]	4 log units of activity (1 unit is approximately 10-fold)
IEGPTLRQWLAARAGPNGIEGPTLRQWLAARA [TMP-GPNG-TMP (SEQ ID NO. 10)]	3 log units of activity (1 unit is approximately 10-fold)
IEGPTLRQWLAARAGGGGIEGPTLRQWLAARA [TMP-(Gly)n-TMP, n = 4]	4 log units of activity (1 unit is approximately 10-fold)
IEGPTLRQWLAARAGGGGGIEGPTLRQWLAARA [TMP-(Gly)n-TMP, n = 5]	4 log units of activity (1 unit is approximately 10-fold)
B2	3.5 log units of activity (1 unit is approximately 10-fold)
IEGPTLRQWLAARAGGGC([maleimide-mPEG 5 kDa])GGGGIEGPTLRQWLAARA [TMP-GGGC(PEG)GGGG-TMP (SEQ ID NO. 18)]	5 log units of activity (1 unit is approximately 10-fold)
IEGPTLRQWLAARAGGGGGGIEGPTLRQWLAARA [TMP-(Gly)n-TMP, n = 6]	4 log units of activity (1 unit is approximately 10-fold)

Same assay, conditions: scale: log units of activity

Molecule	Relative Potency (EC50), proliferation of murine 32D cells transfected with human mpl receptor
TMP-(Gly)n-TMP, n = 14 (peptide)	4
TMP-(Gly)n-TMP, n = 9 (peptide)	4
TMP-(Gly)n-TMP, n = 10 (peptide)	4
TPO (ligand)	4
